From patent publication US12214014B2, “Methods for scar reduction by converting scar fibroblasts into adipocytes with hair follicle-derived signals” (The Trustees of the University of Pennsylvania, priority 2017, dated 2025)
“Also recorded” adds a separate entry of the source.

Columns and labels:
[1] = test system: regenerated adipocytes in wounds; experiment: Adipocyte regeneration in large excisional skin wounds (adipocyte/hair follicle index, Oil Red O); format: in vivo, mouse; details: for Adipocyte/hair index (new adipocyte/follicle ratio): WT mice treated during wound healing, post-wounding Day 28; for regeneration of new adipocytes in hair-bearing wounds: treatment during wound healing (2 mg/kg), hair follicles regenerate normally
Protocol: (§1) All animal experiments were carried out in accordance to with the guidelines of the IACUC of the University of Pennsylvania and the University of California, Irvine. Full thickness 1.5×1.5 cm (2.25 cm^2) excisional wounds were inflicted on the backs of three to eight week-old mice as described in M. Ito et al., Nature 447:316 (2007).
Whole mount wounds were stained for Oil Red O and the number of regenerated hair follicles was counted from the skin surface, where each new hair is clearly visible. The number of new adipocytes was counted from the underside, where each adipocyte is clearly visible due to their very large size and prominent marking by Oil Red O dye. For each experiment, adipose tissue regeneration was quantified as the ratio of all new adipocytes/all new hair follicles (aka adipocyte/hair follicle index). Some wound samples (FIG. 2B) were stained for lacZ and photographed, then additionally stained for Oil Red O and photographed again. Adipocytes were then micro-dissected and photographed under stereomicroscope.

Zfp423 = Zfp423 reporter (lacZ) activity in wounds of Zfp423-lacZ mice; format: in vivo, mouse; details: 2 mg/kg during wound healing, day 21
Protocol: FIG. 25: BMP signaling is necessary for Zfp423 reporter activation in wounds. […] Asterisk marks lacZ-positive dermal papillae of new hair follicles. Size bars: 100 μm.
as §1

[2] = test system: mouse dermal cells isolated from day 15 wounds; experiment: Primary mouse adipogenic cell culture; format: cell-based; details: 6 ng/ml hBMP4 or 25 ng/ml hBMP2 with differentiation media
Protocol: Primary scar cells were isolated from day 15 wounds as described in D. Gay et al., Nature medicine 19:916 (2013) with minor modifications. Single cell fractions were created and cultured to confluence in high-glucose to DMEM (Gibco) supplemented with 10% FBS (Atlanta Biologicals) and […] Pen/Strep cocktail (Gibco). […] After three days, cells differentiation media was switched to adipocyte maintenance media (Cell Solutions). Cells were cultured in a water-jacketed incubator at 37° C. with 5% CO2 output
(§2) Total RNA was isolated using Trizol reagent (Thermo) or RNEasy Micro-Kit (Qiagen) as per manufacturer's protocol with minor modifications. Total RNA was reverse-transcribed and cDNA was amplified using PCR primers described in J. Ishibashi et al., Mol Cell Biol 32:2289 (2012). See Tables 3 and 4 for the sequences of primers used.

human keloid scar cells = experiment: Primary human adipogenic cell culture, keloid scar cells; format: cell-based; details: 20 ng/ml hBMP4 for 48 hours, then adipogenic cocktail; for adipogenic conversion of keloid scar cells (Oil Red O positive adipocytes): n=3
Protocol: (§3) All human experiments were carried out in accordance with the guidelines of the IRB of the University of California, Irvine, Children's Hospital Los Angeles and Kyungpook National University. Keloid fibroblasts were isolated as described in Y. S. Lee et al., Wound repair and regeneration: official publication of the Wound Healing Society [and] the European Tissue Repair Society 24:302 (2016). Human hypertrophic scar myofibroblasts were derived from clinical specimen biopsies and expanded in vitro as described in M. Vangipuram et al., Journal of visualized experiments: JoVE, e3779 (2013).
Primary human scar cells were cultured in DMEM/F12 media (Gibco) supplemented with 10% FBS (Fisher Scientific). Upon confluency, cells were switched to serum free DMEM/F12 media and treated with 20 ng/ml recombinant hBMP4 protein (R&D Systems) for 48 hours before differentiation. For the hair follicle co-culture, cells were grown in 12-well trans-well plates. Once near confluency, medium was changed to William's E hair follicle organ culture medium, and 40 microdissected human scalp anagen hair follicles were co-cultured on top of the membrane insert in each well for 5 days. Control cells were cultured in William's E medium without hair follicles. In all cases, adipogenic differentiation was induced by adding adipogenic cocktail: DMEM/F12 media supplemented with 1% ITS premix (insulin-transferrin-selenium; BD Biosciences), 0.5 mM isobutylmethylxanthine (Sigma), 0.1 μM cortisol (Sigma), 1 μM dexamethasome (Sigma), 0.2 nM triiodothyronine (Sigma), and 1 μM rosiglitazone (Cayman Chemical). After 4 days of induction, cells were changed to maintenance media: DMEM/F12 media supplemented with 1% ITS premix (BD Biosciences), 0.1 μM cortisol (Sigma), and 0.2 nM triiodothyronine (Sigma). For the hair follicle co-culture, cells were maintained in the induction media for 7 days. Lipid droplets were visualized after 7 days and cells were harvested for RNA isolation on day 10.
as §2

[3] = test system: human hypertrophic scar fibroblasts; experiment: Primary human adipogenic cell culture, hypertrophic scar fibroblasts; format: cell-based; details: n=3
Protocol: as §3
Primary human scar cells were cultured in DMEM/F12 media (Gibco) supplemented with 10% FBS (Fisher Scientific). Upon confluency, cells were switched to serum free DMEM/F12 media and treated with 20 ng/ml recombinant hBMP4 protein (R&D Systems) for 48 hours before differentiation. For the hair follicle co-culture, cells were grown in 12-well trans-well plates. Once near confluency, medium was changed to William's E hair follicle organ culture medium, and 40 microdissected human scalp anagen hair follicles were co-cultured on top of the membrane insert in each well for 5 days. Control cells were cultured in William's E medium without hair follicles. […]

[4] = listed as small-molecule inhibitor of SMAD1/5/8 phosphorylation

## c1ccc2c(-c3cnn4cc(-c5ccc(N6CCNCC6)cc5)cnc34)ccnc2c1 [LDN-193189]
[1]
  Adipocyte/hair index (new adipocyte/follicle ratio): 0.58 ± 0.35
  regeneration of new adipocytes in hair-bearing wounds: near complete loss of regenerated adipocytes
[1]; [4]
  Adipocyte/hair index (new adipocyte/follicle ratio): 0.58+/−0.35
  regeneration of new adipocytes in hair-bearing wounds: largely prevented new adipocyte regeneration
Zfp423
  Zfp423 activity (reporter) in dermal cells surrounding new hair follicles and in blood vessels: significantly downregulated
Zfp423; [4]
  Zfp423 activity (reporter) in dermal cells surrounding new hair follicles and in blood vessels: downregulated

B1: BMP4: human recombinant bone morphogenetic protein 4 (R&D Systems) (protein, UniProt P12644 293-408, looked up)
Bone morphogenetic protein 4: SPKHHSQRARKKNKNCRRHSLYVDFSDVGWNDWIVAPPGYQAFYCHGDCPFPLADHLNSTNHAIVQTLVNSVNSSIPKACCVPTELSAISMLYLDEYDKVVLKNYQEMVVEGCGCR
[2]
  activation of adipocyte-specific genes (qRT-PCR): activation of adipocyte-specific genes
[2]; without BMP non-adipogenic
  reprogramming of cultured mouse dermal cells into adipocytes: induced their reprogramming into adipocytes
Human keloid scar cells
  expression of adipogenic genes ZNF423, ADIPOQ, ADIPOSIN, PPARG2, FABP4 (qRT-PCR): expression of adipocyte markers; also recorded: activation of adipocyte-specific genes
  adipogenic conversion of keloid scar cells (Oil Red O positive adipocytes): induced their conversion to lipid-laden adipocytes; also recorded: induced their reprogramming into adipocytes
Human keloid scar cells; listed as hBMP4
  expression of adipogenic genes ZNF423, ADIPOQ, ADIPOSIN, PPARG2, FABP4 (qRT-PCR): upregulation of adipogenic genes
  adipogenic conversion of keloid scar cells (Oil Red O positive adipocytes): consistently induced adipogenic conversion
[3]; following hBMP4 treatment
  qRT-PCR against select adipogenic genes: only ADIPISIN becomes significantly upregulated
[3]; hBMP4 for 48 hours prior to differentiation, vs non-hBMP4 control
  adipogenic potential of hypertrophic scar fibroblasts (Oil Red O): does not induce an increase in adipogenic potential
